Results published in patent US20210309732A1 (ELIXIRON IMMUNOTHERAPEUTICS HONG KONG, published 2021).
Residue numbers refer to the chain shown, from its start. In names and notes the source's numbering stands. Like-named read-outs stand apart in the source and are kept apart here. Blank lines part the entries; values can stand above or below the molecule they belong to.

Experiments:
[1] = target: recombinant human IL-3 (human) (UniProt P08700); test: cell-based or functional assay
[2] = target: recombinant human GM-CSF (human) (UniProt P04141); test: ELISA, GM-CSF coated on the plate, anti-human kappa light chain-HRP, OD 450 nm
recombinant human GM-CSF (human), sequence (P04141 18-144 limits assumed): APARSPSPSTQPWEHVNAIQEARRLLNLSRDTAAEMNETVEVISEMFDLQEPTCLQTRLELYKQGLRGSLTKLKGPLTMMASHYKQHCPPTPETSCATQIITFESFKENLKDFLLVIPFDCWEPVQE

rhesus GM-CSF (rhesus) = rhesus GM-CSF (rhesus) (UniProt Q9GL44); test: as above
rhesus GM-CSF (rhesus), sequence (Q9GL44 entry or part of it limits assumed): as the sequence (P04141 18-144 limits assumed) above, with S9G, E38K, I43V, T53S, R67Q, E104Q counted along it

[3] = target: recombinant human GM-CSF (human) (UniProt P04141); test: cell-based or functional assay
[4] = target: recombinant human GM-CSF (human) (UniProt P04141); test: SPR Biacore 3000, antibody captured by goat anti-human IgG, rhGM-CSF injected
recombinant human GM-CSF [5] = target: T1, recombinant human GM-CSF (human, UniProt P04141 18-144); test: cell-based or functional assay
T1 sequence (P04141 18-144 limits assumed): as the sequence (P04141 18-144 limits assumed) above

recombinant human GM-CSF [6] = target: T1, recombinant human GM-CSF; test: Biacore
recombinant human GM-CSF [7] = target: T1, recombinant human GM-CSF; test: ELISA on coated rhGM-CSF, UBA relative to 1D2
Procedure, shortened: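 Antibody clones carrying SDR point mutants in VH or VL, each paired with the wild-type chain, were expressed in HEK293 cells. Culture media diluted 1:12000 were bound to plates coated with rhGM-CSF at 1 μg/mL for 1 h at room temperature. Detection used HRP anti-human antibody and Amplex Red fluorescence (Ex530/Em590), with UBA = fluorescence signal/dilution factor.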

recombinant human GM-CSF [8] = target: T1, recombinant human GM-CSF; test: Gator, Coating Ab
recombinant human GM-CSF [9] = target: T1, recombinant human GM-CSF; test: Gator, Coating Ag
recombinant human GM-CSF [10] = target: T1, recombinant human GM-CSF; test: Biacore; remark: listed apart in the source
recombinant human GM-CSF [11] = target: T1, recombinant human GM-CSF; test: Gator (pro), Coating Ag
recombinant human GM-CSF [12] = target: T1, recombinant human GM-CSF; test: cell-based or functional assay; remark: listed apart in the source
recombinant human GM-CSF [13] = target: T1, recombinant human GM-CSF; test: Biacore; remark: listed apart in the source
rhesus GM-CSF = rhesus GM-CSF (rhesus, UniProt Q9GL44 18-144); test: ELISA, rhesus GM-CSF coated on the plate, anti-human kappa light chain-HRP, OD 450 nm
rhesus GM-CSF, sequence (Q9GL44 entry or part of it limits assumed): as the sequence (P04141 18-144 limits assumed) above, with S9G, E38K, I43V, T53S, R67Q, E104Q counted along it
Procedure: (§1) Human and mouse GM-CSF have about 56% homology and are species specific. Rhesus and GM-CSF has 96.5% homologous to human GM-CSF (Hutchinson et al, J Med Virol 2001, 65:561-565, Genbank accession number AY007376). […] ELISA was performed as followed. Briefly, GM-CSF proteins were coated on the ELISA absorbing plates, then blocked by 1% BSA in PBS. […] After incubation, the plates were washed three times with TBST and incubated with anti-human kappa light chain conjugated HRP secondary antibodies. Plates were washed three times, TMB peroxidase substrate was added and reactions were stopped by adding 1 N sulfuric acid.

recombinant human GM-CSF [14] = target: T1, recombinant human GM-CSF; test: ELISA, human GM-CSF coated on the plate, anti-human kappa light chain-HRP, OD 450 nm
Procedure: as §1

recombinant human IL-3 (human), sequence (P08700 20-152 limits assumed): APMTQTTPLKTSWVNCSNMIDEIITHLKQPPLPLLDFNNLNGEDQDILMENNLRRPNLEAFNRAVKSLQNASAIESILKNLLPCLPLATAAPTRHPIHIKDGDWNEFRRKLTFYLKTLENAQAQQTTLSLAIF

B2: 1D2 SDR mutant HK54G (antibody, IgG1, V domains shown)
VH: QVQLVQSGAEVKKPGASVKVSCEASGYTFTDKYLHWVRQAPGQGLEWMAWINPGSGGTFYAQNFKGRVTVTRDTSINTAYLELTSLRLDDTSTYYCARGRDYYDQGAADLWGQGTMVTVSS
VL: DIQLTQSPSSLSASVGDRVTITCRASQGINSVLAWYQQKPGKAPKLLLYAASKLESGVPSRFSGSGSGTDYTLTISSLQPEDFGTYYCQQYYSPVRTFGQGTKVEIKR
notes: also called X3 G
IC50 (M), inhibition of GM-CSF induced TF-1 cell proliferation (FIG. 5B) (recombinant human GM-CSF [5]): 1.87e-09 M
Ka (recombinant human GM-CSF [6]): 2.89e+09 M⁻¹
Kd (recombinant human GM-CSF [6]): 0.346 nM
koff (recombinant human GM-CSF [6]): 0.000448 s⁻¹
kon (recombinant human GM-CSF [6]): 1.3e+06 M⁻¹ s⁻¹
binding affinity % of 1D2 (recombinant human GM-CSF [7]): 114%

B3: 1D2 SDR mutant K54G/V32R (antibody, IgG1, V domains shown)
VH: B2 VH
VL: B2 VL with V32R
notes: also called 54G/32R
Kd (recombinant human GM-CSF [8]): 0.929 nM
Kd (recombinant human GM-CSF [9]): 0.0222 nM
Kd (recombinant human GM-CSF [10]): 1.5 nM
IC50 (M), inhibition of GM-CSF induced TF-1 cell proliferation (FIG. 5B) (recombinant human GM-CSF [5]): 6.62e-09 M
Ka (recombinant human GM-CSF [6]): 5.23e+08 M⁻¹
Kd (recombinant human GM-CSF [6]): 1.91 nM
koff (recombinant human GM-CSF [6]): 0.00197 s⁻¹
kon (recombinant human GM-CSF [6]): 1.03e+06 M⁻¹ s⁻¹
Kd (recombinant human GM-CSF [11]): 0.000746 nM

B4: 1D2 SDR mutant LV95P (antibody, IgG1, V domains shown)
VH: B2 VH with G54K
VL: B2 VL with V95P
notes: also called X10 P
binding affinity % of 1D2 (recombinant human GM-CSF [7]): 46%

B5: 1D2 SDR mutant LV32R (antibody, IgG1, V domains shown)
VH: B2 VH with G54K
VL: B2 VL with V32R
notes: also called X8 R
IC50 (M), inhibition of GM-CSF induced TF-1 cell proliferation (FIG. 5B) (recombinant human GM-CSF [5]): 2.48e-09 M
binding affinity % of 1D2 (recombinant human GM-CSF [7]): 1030%

B6: 1D2 SDR mutant HY103N (antibody, IgG1, V domains shown)
VH: B2 VH with G54K, Y103N
VL: B2 VL
notes: also called X6 N
IC50 (M), inhibition of GM-CSF induced TF-1 cell proliferation (FIG. 5A) (recombinant human GM-CSF [5]): 3.41e-09 M
IC50 (M), inhibition of GM-CSF induced TF-1 cell proliferation (FIG. 5B) (recombinant human GM-CSF [5]): 3.6e-09 M
Ka (recombinant human GM-CSF [6]): 2.5e+09 M⁻¹
Kd (recombinant human GM-CSF [6]): 0.4 nM
koff (recombinant human GM-CSF [6]): 0.000669 s⁻¹
kon (recombinant human GM-CSF [6]): 1.67e+06 M⁻¹ s⁻¹
binding affinity % of 1D2 (recombinant human GM-CSF [7]): 130%

B7: 1D2 SDR mutant HQ105N (antibody, IgG1, V domains shown)
VH: B2 VH with G54K, Q105N
VL: B2 VL
notes: also called X7 N
IC50 (M), inhibition of GM-CSF induced TF-1 cell proliferation (FIG. 5B) (recombinant human GM-CSF [5]): 7.67e-09 M
binding affinity % of 1D2 (recombinant human GM-CSF [7]): 156%

B10: 1D2 SDR mutant HY103R (antibody, IgG1, V domains shown)
VH: B2 VH with G54K, Y103R
VL: B2 VL
notes: also called X6 R
IC50 (M), inhibition of GM-CSF induced TF-1 cell proliferation (FIG. 5B) (recombinant human GM-CSF [5]): 3.47e-09 M
Ka (recombinant human GM-CSF [6]): 2.42e+09 M⁻¹
Kd (recombinant human GM-CSF [6]): 0.414 nM
koff (recombinant human GM-CSF [6]): 0.00057 s⁻¹
kon (recombinant human GM-CSF [6]): 1.38e+06 M⁻¹ s⁻¹
binding affinity % of 1D2 (recombinant human GM-CSF [7]): 115%

B12: 1D2 SDR mutant LP94N (antibody, IgG1, V domains shown)
VH: B2 VH with G54K
VL: B2 VL with P94N
notes: also called X9 N
IC50 (M), inhibition of GM-CSF induced TF-1 cell proliferation (FIG. 5B) (recombinant human GM-CSF [5]): 1.49e-09 M
binding affinity % of 1D2 (recombinant human GM-CSF [7]): 60%

Results, then the molecule that gave them:

Mean Fluorescence Intensity of phospho-STAT5 (pY694) in human PBMCs stimulated with 10 ng/mL rhIL-3, 2 ug/mL antibody (no antibody: 102) [1]: 106 MFI
Molecule: MOR103 (otilimab) (antibody)

EC50 (read off the curve) [2]: 0.05 nM
EC50 (read off the curve) (rhesus GM-CSF (rhesus)): 0.05 nM
Mean Fluorescence Intensity of phospho-STAT5 (pY694) in human PBMCs stimulated with 10 ng/mL rhGM-CSF, 2 ug/mL antibody (no antibody: 122.0) [3]: 42.6 MFI
Mean Fluorescence Intensity of phospho-STAT5 (pY694) in human PBMCs stimulated with 10 ng/mL rhIL-3, 2 ug/mL antibody (no antibody: 102) [1]: 104 MFI
Kd [4]: 0.62 nM
koff [4]: 4.77e-05 s⁻¹
kon [4]: 296000 M⁻¹ s⁻¹
B1: AMG203 (namilumab) (antibody, INN chains, looked up, human IgG1, V domains shown)
VH: QVQLVQSGAEVKKPGASVKVSCKAFGYPFTDYLLHWVRQAPGQGLEWVGWLNPYSGDTNYAQKFQGRVTMTRDTSISTAYMELSRLRSDDTAVYYCTRTTLISVYFDYWGQGTMVTVSS
VL: DIQMTQSPSSVSASVGDRVTIACRASQNIRNILNWYQQRPGKAPQLLIYAASNLQSGVPSRFSGSGSGTDFTLTINSLQPEDFATYYCQQSYSMPRTFGGGTKLEIK
modifications: IgG1 kappa

binding affinity % of 1D2 (recombinant human GM-CSF [7]): 45%
B8: 1D2 SDR mutant LV95R (antibody, IgG1, V domains shown)
VH: B2 VH with G54K
VL: B2 VL with V95R
notes: also called X10 R

IC50, inhibition of GM-CSF induced TF-1 cell proliferation (recombinant human GM-CSF [12]): 0.0971 nM
IC50, inhibition of rhGM-CSF induced CCL17 secretion from PBMCs (recombinant human GM-CSF [12]): 0.0543 nM
IC50, inhibition of rhGM-CSF induced IL-8 secretion in U937 cells (recombinant human GM-CSF [12]): 0.051 nM
Kd (recombinant human GM-CSF [13]): 0.0732 nM
koff (recombinant human GM-CSF [13]): 0.000188 s⁻¹
kon (recombinant human GM-CSF [13]): 2.58e+06 M⁻¹ s⁻¹
EC50 (read off the curve) (rhesus GM-CSF): ~0.6 nM
EC50 (read off the curve) (recombinant human GM-CSF [14]): ~0.5 nM
B9: 1D2-D89E (ED) (antibody, IgG1, V domains shown)
VH: B2 VH with G54K, D89E
VL: B2 VL
notes: also called ID2-D89E (ED); ED mutant

IC50, inhibition of GM-CSF induced TF-1 cell proliferation (recombinant human GM-CSF [12]): 0.123 nM
IC50, inhibition of rhGM-CSF induced IL-8 secretion in U937 cells (recombinant human GM-CSF [12]): 0.054 nM
Kd (recombinant human GM-CSF [13]): 0.114 nM
koff (recombinant human GM-CSF [13]): 0.000198 s⁻¹
kon (recombinant human GM-CSF [13]): 1.74e+06 M⁻¹ s⁻¹
EC50 (read off the curve) (rhesus GM-CSF): ~0.6 nM
EC50 (read off the curve) (recombinant human GM-CSF [14]): ~0.5 nM
B11: 1D2-D90E (DE) (antibody, IgG1, V domains shown)
VH: B2 VH with G54K, D90E
VL: B2 VL
notes: also called ID2-D90E (DE); DE mutant

Kd (recombinant human GM-CSF [8]): 1.44 nM
Kd (recombinant human GM-CSF [9]): 0.0201 nM
Kd (recombinant human GM-CSF [10]): 3.36 nM
IC50 (M), inhibition of GM-CSF induced TF-1 cell proliferation (FIG. 5B) (recombinant human GM-CSF [5]): ~6.83e-09 M
Ka (recombinant human GM-CSF [6]): 2.37e+08 M⁻¹
Kd (recombinant human GM-CSF [6]): 4.22 nM
koff (recombinant human GM-CSF [6]): 0.0027 s⁻¹
kon (recombinant human GM-CSF [6]): 640000 M⁻¹ s⁻¹
Kd (recombinant human GM-CSF [11]): 0.00584 nM
B13: 1D2 SDR mutant Y103N/V32R (antibody, IgG1, V domains shown)
VH: B2 VH with G54K, Y103N
VL: B2 VL with V32R

Kd (recombinant human GM-CSF [8]): 4.14 nM
Kd (recombinant human GM-CSF [9]): 0.0309 nM
Kd (recombinant human GM-CSF [10]): 7.76 nM
IC50 (M), inhibition of GM-CSF induced TF-1 cell proliferation (FIG. 5B) (recombinant human GM-CSF [5]): ~8.19e-09 M
Ka (recombinant human GM-CSF [6]): 4.14e+08 M⁻¹
Kd (recombinant human GM-CSF [6]): 2.42 nM
koff (recombinant human GM-CSF [6]): 0.00241 s⁻¹
kon (recombinant human GM-CSF [6]): 998000 M⁻¹ s⁻¹
Kd (recombinant human GM-CSF [11]): 0.0028 nM
B14: 1D2 SDR mutant Y103R/V32R (antibody, IgG1, V domains shown)
VH: B2 VH with G54K, Y103R
VL: B2 VL with V32R
